Reference: PMC7556864, “The NTP generating activity of pyruvate kinase II is critical for apicoplast maintenance in Plasmodium falciparum” (eLife, 2020)

Legend:
[1] = target: T1, PyrKII (P. falciparum pyruvate kinase II; His-PyrKII) (Plasmodium falciparum, UniProt Q8IJ37); assay: LDH-coupled spectrophotometric assay, NADH oxidation at […] nm; format: biochemical; conditions: 3 mM ADP, PEP 0-20 mM, 10 mM MgCl2, 50 mM KCl, 26.5 mM Tris-HCl pH 7.5
T1 construct: gene PF3D7_1037100; residues 42-745 (predicted mature protein, apicoplast trafficking peptide removed); synthetic codon-harmonized gene; MBP-TEV-His6 fusion from E. coli BL21 Star (DE3), MBP cut by TEV, N-terminal His6 kept; 83,014 Da
T1 sequence (Q8IJ37 42-745): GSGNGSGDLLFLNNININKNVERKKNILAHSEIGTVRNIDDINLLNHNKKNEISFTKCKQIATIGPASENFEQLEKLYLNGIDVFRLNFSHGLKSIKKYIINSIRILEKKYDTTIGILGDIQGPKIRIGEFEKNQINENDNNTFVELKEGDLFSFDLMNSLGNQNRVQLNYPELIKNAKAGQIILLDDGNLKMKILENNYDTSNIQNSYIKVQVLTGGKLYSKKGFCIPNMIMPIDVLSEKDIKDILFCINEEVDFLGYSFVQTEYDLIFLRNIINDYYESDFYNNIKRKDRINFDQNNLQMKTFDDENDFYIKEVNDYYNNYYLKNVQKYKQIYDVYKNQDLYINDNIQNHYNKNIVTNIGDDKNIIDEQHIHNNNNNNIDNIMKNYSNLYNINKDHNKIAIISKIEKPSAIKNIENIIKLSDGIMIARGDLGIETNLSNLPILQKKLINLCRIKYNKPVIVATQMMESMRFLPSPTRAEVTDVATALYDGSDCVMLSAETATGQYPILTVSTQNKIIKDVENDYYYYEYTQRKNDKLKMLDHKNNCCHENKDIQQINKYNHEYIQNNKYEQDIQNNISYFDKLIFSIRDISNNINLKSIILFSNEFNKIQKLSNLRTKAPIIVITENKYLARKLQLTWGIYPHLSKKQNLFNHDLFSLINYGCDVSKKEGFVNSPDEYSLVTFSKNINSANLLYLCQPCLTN

[2] = substrate: Nc1ccn([C@@H]2O[C@H](COP(=O)(O)OP(=O)(O)O)[C@@H](O)[C@H]2O)c(=O)n1; assay: purified protein; format: biochemical, Plasmodium falciparum; conditions: 5 mM PEP, 10 mM MgCl2, 50 mM KCl, 26.5 mM Tris-HCl pH 7.5
[3] = substrate: Nc1ccn([C@H]2C[C@H](O)[C@@H](COP(=O)(O)OP(=O)(O)O)O2)c(=O)n1; assay: purified protein; format: biochemical, Plasmodium falciparum; conditions: 5 mM PEP, 10 mM MgCl2, 50 mM KCl, 26.5 mM Tris-HCl pH 7.5
[4] = substrate: Nc1nc2c(ncn2[C@H]2C[C@H](O)[C@@H](CO[P@](=O)(O)OP(=O)(O)O)O2)c(=O)[nH]1; assay: purified protein; format: biochemical, Plasmodium falciparum; conditions: 5 mM PEP, 10 mM MgCl2, 50 mM KCl, 26.5 mM Tris-HCl pH 7.5
[5] = substrate: Nc1nc2c(ncn2[C@@H]2O[C@H](COP(=O)(O)OP(=O)(O)O)[C@@H](O)[C@H]2O)c(=O)[nH]1; assay: purified protein; format: biochemical, Plasmodium falciparum; conditions: 5 mM PEP, 10 mM MgCl2, 50 mM KCl, 26.5 mM Tris-HCl pH 7.5
[6] = substrate: Nc1ncnc2c1ncn2[C@H]1C[C@H](O)[C@@H](COP(=O)(O)OP(=O)(O)O)O1; assay: purified protein; format: biochemical, Plasmodium falciparum; conditions: 5 mM PEP, 10 mM MgCl2, 50 mM KCl, 26.5 mM Tris-HCl pH 7.5
[7] = substrate: Nc1ncnc2c1ncn2[C@@H]1O[C@H](COP(=O)(O)OP(=O)(O)O)[C@@H](O)[C@H]1O; assay: purified protein; format: biochemical, Plasmodium falciparum; conditions: 5 mM PEP, 10 mM MgCl2, 50 mM KCl, 26.5 mM Tris-HCl pH 7.5
[8] = substrate: O=c1ccn([C@@H]2O[C@H](COP(=O)(O)OP(=O)(O)O)[C@@H](O)[C@H]2O)c(=O)[nH]1; assay: purified protein; format: biochemical, Plasmodium falciparum; conditions: 5 mM PEP, 10 mM MgCl2, 50 mM KCl, 26.5 mM Tris-HCl pH 7.5

C=C(OP(=O)(O)O)C(=O)O [PEP]
Km [1]: 0.64+ / - 0.05 mM

B1: PyrKII (P. falciparum pyruvate kinase II; His-PyrKII) (Plasmodium falciparum 3D7) (protein)
chain: T1 sequence (Q8IJ37 42-745)
notes: residues 42-745 (predicted mature protein, apicoplast trafficking peptide removed); synthetic codon-harmonized gene; MBP-TEV-His6 fusion from E. coli BL21 Star (DE3), MBP cut by TEV, N-terminal His6 kept; 83,014 Da
kcat [2]: 7.3 ± 1.15 s⁻¹
kcat/Km [2]: 7200 M⁻¹ s⁻¹
kcat [3]: 1.3 ± 0.05 s⁻¹
kcat/Km [3]: 2480 M⁻¹ s⁻¹
kcat [4]: 1.5 ± 0.0833 s⁻¹
kcat/Km [4]: 5300 M⁻¹ s⁻¹
kcat [5]: 6.62 ± 0.75 s⁻¹
kcat/Km [5]: 98200 M⁻¹ s⁻¹
kcat [6]: 6.68 ± 0.517 s⁻¹
kcat/Km [6]: 17800 M⁻¹ s⁻¹
kcat [7]: 13.2 ± 3.1 s⁻¹
kcat/Km [7]: 53300 M⁻¹ s⁻¹
kcat [8]: 4.2 ± 0.667 s⁻¹
kcat/Km [8]: 5100 M⁻¹ s⁻¹
